B1: B6 mAb (antibody, V domains shown)
VH: EVQLQQSGPVLVKPGASVRMSCKASGYTITDYYLNWVKQSHGKSLEWLGVLNPYSGGSLYSQTFKGKATLTVDRSSSTAYLELNSLTSEDSAVYYCARQLGRGNGLDYWGQGTSVTVSS
VL: NIMMTQSPSSLAVSAGEKVTMSCKSSQSVLHSSDQKNYLAWYQQKPGQSPKLLIYWASTRESGVPDRFTGSGSGTDFTLTISSVQAEDLAVYFCHQYLSSYTFGGGTKLEIK
notes: source: 293 cells, purified using protein A resin
B2: CV3-25 Fab (Fab, V domains shown)
VH: QVQLVESGAEVKKPGESLKISCKGSGYTFTRYWIGWVRQMPGKGLEWMGIIYPGDSDTRYSPSFQGHVTISADKSISTAYLQWNSLKASDTAMYYCARLPQYCSNGVCQRWFDPWGQGTLVTVSS
VL: EIVLTQSPSSVSASVGDRVTITCRASQGISSWLAWYQQKPGKAPKLLIYAASSLQSGVPSRFSGSGSGTDFTLTISSLQPEDFATYYCQQGNSFPYTFGQGTNLEIK
notes: also called monovalent Fab

Molecular target: SARS-CoV-2 S6P (SARS-CoV-2, Wuhan-Hu-1 (assumed), UniProt P0DTC2, stabilised, biotinylated (site not stated))
Experiment: BLI
Conditions: both partners purified

| Binder | binding result | Kd |
| --- | --- | --- |
| B1 | binds | – |
| B2 | – | ~0.6 nM |

— article PMC9001700 (Communications Biology, 2022)
